Holding throughout (assay): LC-MRM-MS product quantification, non-linear regression
Common to all, as to assay type: biochemical, Arabidopsis thaliana

Substrate in data set [1]: O=C(O)C(=O)CO
To be noted: NADPH (2 mM), 100 mM potassium phosphate pH 7.0, 4 mM DTT, 40 μM ascorbate, 30 °C. The source says:
(§1) LC-MRM-MS product quantification, non-linear regression on HPPR2

Substrate in data set [2]: O=C(O)C(=O)Cc1ccc(O)cc1
The note with it: NADPH (2 mM), 100 mM potassium phosphate pH 7.0, 4 mM DTT, 40 μM ascorbate, 30 °C.
From the text: as §1

Substrate in data set [3]: O=C(O)C(=O)Cc1ccccc1
To be noted: NADPH (2 mM), 100 mM potassium phosphate pH 7.0, 4 mM DTT, 40 μM ascorbate, 30 °C.
From the text: as §1

Substrate in data set [4]: O=C(O)C(=O)CO
The note with it: NADH (2 mM), 100 mM potassium phosphate pH 7.0, 4 mM DTT, 40 μM ascorbate, 30 °C. An excerpt: LC-MRM-MS product quantification, non-linear regression on HPR1

Substrate in data set [5]: O=C(O)C(=O)CO
To be noted: NADPH (2 mM), 100 mM potassium phosphate pH 7.0, 4 mM DTT, 40 μM ascorbate, 30 °C. An excerpt: (§2) LC-MRM-MS product quantification, non-linear regression on HPPR3
This is another data set of the same source.

Substrate in data set [6]: O=C(O)C(=O)Cc1ccc(O)cc1
The note with it: NADPH (2 mM), 100 mM potassium phosphate pH 7.0, 4 mM DTT, 40 μM ascorbate, 30 °C.
From the text: as §2
The source holds these as a separate data set.

Substrate in data set [7]: O=C(O)C(=O)Cc1ccccc1
The note with it: NADPH (2 mM), 100 mM potassium phosphate pH 7.0, 4 mM DTT, 40 μM ascorbate, 30 °C.
From the text: as §2
This is another data set of the same source.

The values below come from article PMC6133988, “Characterization of Arabidopsis thaliana Hydroxyphenylpyruvate Reductases in the Tyrosine Conversion Pathway” (Frontiers in Plant Science, 2018).

As a reminder, the Km is the concentration of substrate that gives half-maximal velocity. The term kcat denotes the number of substrate molecules converted per active site and unit of time at saturation. In general, kcat/Km refers to the turnover number divided by the Michaelis constant.

B1: HPPR2 (Arabidopsis thaliana) (protein)
chain: MESIGVLMMCPMSSYLENELEKRFNLLRFWTSPEKSVLLETHRNSIRAVVGNASAGADAQLISDLPNLEIVSSFSVGLDKIDLGKCKEKGIRVTNTPDVLTEDVADLAIGLILALLRRLCECDRYVRSGKWKQGEFQLTTKFSGKSVGIIGLGRIGTAIAKRAEAFSCPINYYSRTIKPDVAYKYYPTVVDLAQNSDILVVACPLTEQTRHIVDRQVMDALGAKGVLINIGRGPHVDEQELIKALTEGRLGGAALDVFEQEPHVPEELFGLENVVLLPHVGSGTVETRNAMADLVVGNLEAHFSGKSLLTPVV
notes: coding region from Arabidopsis cDNA in pDEST17, His-tagged, E. coli, Ni-NTA purified
Take B1: in data set [1], the Km was 1050 ± 390 µM, the kcat worked out at 0.926 ± 0.0788 s⁻¹ and the kcat/Km stood at 950 ± 296 M⁻¹ s⁻¹. Further, in data set [2], the Km was 800 ± 160 µM, the kcat worked out at 0.122 ± 0.0085 s⁻¹ and the kcat/Km stood at 157 ± 36.3 M⁻¹ s⁻¹. Moreover, in data set [3], the Km came out at 3700 ± 750 µM, the kcat came out at 0.0333 ± 0.00983 s⁻¹ and the kcat/Km was found to be 9 ± 1.17 M⁻¹ s⁻¹.

B2: HPR1 (Arabidopsis thaliana) (protein)
chain: MAKPVSIEVYNPNGKYRVVSTKPMPGTRWINLLVDQGCRVEICHLKKTILSVEDIIDLIGDKCDGVIGQLTEDWGETLFSALSKAGGKAFSNMAVGYNNVDVEAANKYGIAVGNTPGVLTETTAELAASLSLAAARRIVEADEFMRGGLYEGWLPHLFVGNLLKGQTVGVIGAGRIGSAYARMMVEGFKMNLIYFDLYQSTRLEKFVTAYGQFLKANGEQPVTWKRASSMEEVLREADLISLHPVLDKTTYHLVNKERLAMMKKEAILVNCSRGPVIDEAALVEHLKENPMFRVGLDVFEEEPFMKPGLADTKNAIVVPHIASASKWTREGMATLAALNVLGRVKGYPIWHDPNRVDPFLNENASPPNASPSIVNSKALGLPVSKL
notes: as for B1
For the protein B2, in data set [4], the Km stood at 1530 ± 720 µM, the kcat worked out at 3.46 ± 0.0838 s⁻¹ and the kcat/Km worked out at 2570 ± 1040 M⁻¹ s⁻¹.

B3: HPPR3 (Arabidopsis thaliana) (protein)
chain: MAESSEPPVVLLHRPPSLTFMDEILTREFRTLITDTSSSESLPSFFPRHASSARAFVISGRLPVTDELLSHLPSLQILVCTSVGIDHIDLAACKRRGIVITNAGNAFSDDVADCAVGLLISVLRRIPAADRYVRSGNWAKFGDFQLGSKVSGKRVGIVGLGSIGSFVAKRLESFGCVISYNSRSQKQSSPYRYYSDILSLAENNDVLVLCCSLTDETHHIVNREVMELLGKDGVVINVGRGKLIDEKEMVKCLVDGVIGGAGLDVFENEPAVPQELFGLDNVVLSPHFAVATPGSLDNVAQIALANLKAFFSNRPLLSPVQLD
notes: as for B1
Take B3: in data set [5], the Km came to 3570 ± 480 µM, the kcat came to 0.0518 ± 0.0035 s⁻¹ and the kcat/Km worked out at 14.8 ± 2.83 M⁻¹ s⁻¹. For the same protein, in data set [6], the Km turned out to be 370 ± 60 µM, the turnover number (kcat) was 0.285 ± 0.0158 s⁻¹ and the kcat/Km turned out to be 785 ± 87.3 M⁻¹ s⁻¹. In data set [7], the Km amounted to 1520 ± 50 µM, the kcat worked out at 0.611 ± 0.0692 s⁻¹ and the kcat/Km stood at 402 ± 49.2 M⁻¹ s⁻¹.
